The source of these data is US10172917B2, “Targeted oesophageal administration of ZN-α2-glycoproteins (ZAG), methods and formulations thereof” (ASTON UNIVERSITY, priority 2012, dated 2019).

One assay relates to murine ZAG. Put plainly: Western blotting of murine ZAG in serum and WAT of ob/ob mice. To be noted: ob/ob mice dosed orally with human ZAG for 8 days, anti-mouse ZAG antibody. In kind it is in vivo, mouse. Here is the method: Tissues were thawed, washed in PBS and lysed in Phosphosafe™ Extraction reagent for 5 min at room temperature, followed by sonication at 4° C. Cytosolic protein (5-20 ug) formed by centrifugation at 18,000 g for 5 min at 4° C., was resolved on 12% SDS PAGE by electrophoresis at 180V for about 1 h. To determine ZAG in serum 30 μl samples containing 20 μg total protein were electrophoresed as above. Protein was transferred to 0.45 μm nitrocellulose membranes, which had been blocked with 5% (w/v) non-fat dried milk (Marvel) in Tris-buffered saline, pH 7.5, at 4° C. overnight. Membranes were washed for 15 min in 0.1% Tween 20 buffered saline prior to adding the primary antibodies. Both primary and secondary antibodies were used at a dilution of 1:1000. Incubation was for 1 h at room temperature, and development was by ECL. Blots were scanned by a densitometer to quantify differences.

A further assay relates to ob/ob mice. Put plainly: Serum metabolite and insulin levels in ob/ob mice after ZAG administration. Format: in vivo, mouse. To be noted: ob/ob mice after ZAG administration. The source says: FCS (foetal calf serum) was from Biosera (Sussex, UK), while DMEM (Dulbecco's modified Eagles Medium) was from PAA (Somerset, UK) and Freestyle medium was purchased from Invitrogen (Paisley, UK). Hybond A nitrocellulose membranes and peroxidise—conjugated rabbit anti-mouse antibody were from GE Healthcare (Bucks, UK), while enhanced chemiluminescene (ECL) development kits were purchased from Thermo Scientific (Northumberland, UK). Mouse monoclonal antibodies to full-length human and mouse ZAG were from Santa Cruz Biotechnology (Santa Cruz, Calif. A mouse insulin ELISA kit was purchased from DRG (Marburg, Germany) and glucose measurements in both urine and plasma were made using a Boots (Nottingham, UK) glucose kit. L-[U-^14C] tyrosine (sp.act 16.7 GBqmmol^−1) was purchased from Perkin Elmer Ltd, (Cambridge, UK), while 2-[1-^14C] deoxy-D-glucose (sp.act 1.85 GBqmmol^−1) was from American Radiolabeled Chemicals (Cardiff, UK).
Obese (ob/ob) mice (average weight 65 g) were bred in a colony, and were kept in an air conditioned room at 22+2° C. with ad libitum feeding of a rat and mouse breeding diet (Special Diet Services, Witham, UK) and tap water. […] Animals were grouped (n=5) to receive either ZAG/PBS (50 μg day^−1), or PBS in their drinking water, the experiment was repeated three times after a power analysis was performed. […] The ZAG was replaced every 48 h. One group of mice receiving ZAG were also administered propanolol (40 mgkg^−1, p.o.) daily. The dose of ZAG was chosen to be the same as that previously administered i.v. (1), so that a direct comparison could be made, between the two routes. Body weight, food and water intake, urinary glucose excretion, and body temperature, determined by the use of a rectal thermometer (RS Components, Northants, UK), were measured daily. A glucose tolerance test was performed on day 3. Animals were fasted for 12 h, followed by oral administration of glucose (1 gkg^−1 in a volume of 100 μl by gavage). Blood samples were removed from the tail vein at 15, 30, 60 and 120 min and used for the measurement of glucose. Urinary glucose was measured by collecting 0.5 ml urine and testing glucose concentration using a Boots glucose monitor. After 8 days of treatment the animals were terminated by cervical dislocation, tissues were removed and rapidly frozen in liquid nitrogen, and maintained at −80° C. Future work would be to repeat this work in diet-induced animals as alternative to a model with gene alteration, although previous studies have shown the ob/ob mouse to be a good indicator of potential human treatments. Animal studies were conducted under Home Office Licence according to the UKCCCR Guidelines for the care and use of laboratory animals.

Another assay relates to rats. To be noted: rats treated with ZAG; cited from earlier work.

B1: zinc-α2-glycoprotein (protein, listed as Homo sapiens)
chain: QENQDGRYSLTYIYTGLSKHVEDVPAFQALGSLNDLQFFRYNSKDRKSQPMGLWRQVEGMEDWKEDSQLQKAREDMETLKDIVEYYNDSNGSHVLQGRFGCEIENNRSSGAFWKYYYDGKDYIEFNKEIPAWVPFDPAAQITKQKWEAEPVYVQRAKAYLEEECPATLRKYLKYSKNILDRQDPPSVVVTSHQAPGEKKKLKCLAYDFYPGKIDVHWTRAGQVQEPELRGDVLHNGNGTYQSWVVVAVPPQDTAPYSCHVQHSSLAQPLVVPWEAS
notes: Recombinant human ZAG, a 41 kDa protein, produced by HEK293F cells transfected with pcDNA3.1 containing human ZAG
As to B1, the “elevation of murine ZAG in serum” value in the assay with murine ZAG is reported as “two-fold”. The “elevation of murine ZAG in serum” value with murine ZAG (listed as human ZAG) stood at 2 fold. For the same molecule, in the assay with ob/ob mice, the serum glucose level entry was “decrease”, the serum glycerol level entry was “elevation”, the serum insulin level entry is listed as “decrease” and the “serum non-esterified fatty acids” value is reported as “decrease”. Also, the serum triglycerides entry with ob/ob mice was “decrease”. Also, in the assay with rats, the “rise in body temperature” value was 0.4 °C.
